# Assay: label from the status in PepcDB records
# 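Also: failed if final PepcDB status was selected cloned or expressed and not failed if soluble or beyond.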
row,Sequence,protein production
1,MVEAIIFDMDGVLFDTEKYYYDRRASFLGQKGISIDHLPPSFFIGGNTKQVWENILRDEYDKWDVSTLQEEYNTYKQNNPLPYKELIFPDVLKVLNEVKSQGLNIGLASSSVKADIFRALEENRLQAFFDIVLSGEEFKESKPNPEIYLTALKQLNVQASRALIIEDSEKGIAAGVAADVEVWAIRDNLFGMDQSAAKGLLDSLTDVLDLIK,not failed
2,MVEPSLVLYGAPYERAVEVLEETLRETGARYALLIDRKGFVLAHKEALWAPKPPPLDTLVTLVAGNAAATQALAKLLGEARFQEEVHQGERMGLYVDEAGEHALLVLVFDETAPLGKVKLHGKRAAEALARIAEEALANPPRLALDTEYREGAEALLDDLLRN,not failed
3,MVESWALTTPPIDIVNQYLFFIKRKTNYMATYYYALASQKFLLEEEPFEEVLKERRRDYGEKNKEIDFWQVIQPAFLNAPELAEAKAKAPEKNVAIVSTNKSFIVWVKLRLEYVLTGEFEAPSDAIPDPLASLDLEHHHHHH,failed
4,MVEVESDSVAERDRSSFLAGHDAIRLAKSCVDSPPERWYAALYQVYADLTKLRCWSNVEVVYSDSATFPTGLLGPLFEEDSMVQELHSAQCILGSERACFHVRCCIVGSPPSGRAINALSPQSETRTEERIITSRREPEVVIAVPMHAMLKLSNLDQALRMSSHIEGIVKNRHVADSSASTHSTDRQAGSRKSSVIFGFVDEDTTTAYYRIREGACESNDRREFSTDDIASCLAQERT,not failed
5,MVFDAIVVTDLQGFIIDWNKGSETLYGYSKEQAIGQPVNMLHVPGDTEHITSEVISAVENQGKWTGEIRMLHKDGHIGWIESMCVPIYGENYQMVGALGINRDITKRKKELEHHHHHH,failed
6,MVGEEDSERAQSSKMEIERESNLGSASVLMQSKVISVSNFFSIHRFHYPREKIVSFLFPSVFSRIMASYGEEREIQKNYWKEHSVGLSVEAMMLDSKASDLDKEERPEILAFLPPIEGTTVLEFGAGIGRFTTELAQKAGQVIAVDFIESVIKKNENINGHYKNVKFLCADVTSPNMNFPNESMDLIFSNWLLMYLSDQEVEDLAKKMLQWTKVGGYIFFRESCFHQSGDNKRKYNPTHYREPKFYTKLFKECHMNDEDGNSYELSLVSCKCIGAYVRNKKNQNQICWLWQKVSSDNDRGFQRFLDNVQYKSSGILRYERVFGEGFVSTGGLETTKEFVDMLDLKPGQKVLDVGCGIGGGDFYMAENFDVDVVGIDLSVNMISFALEHAIGLKCSVEFEVADCTKKEYPDNTFDVIYSRDTILHIQDKPALFRRFYKWLKPGGKVLITDYCRSPKTPSPDFAIYIKKRGYDLHDVQAYGQMLRDAGFEEVIAEDRTDQFMKVLKRELDAVEKEKEEFISDFSKEDYEDIIGGWKSKLLRSSSGEQKWGLFIAKRN,failed
7,MVGNVRHYLFYANSSELQQQMMNRKSHFNLSQTTQEWLIGKGYNPEDLEQPGENGDSALMKATREGVDAVVKELIDLGVDINARNNDNNNALWFACFGNHYDLIHLLLAAKINIDNQNDNGATVLMYAASAGKTEVVKLLLQYHPNLYLRNLDDFQAIDFASNVEVLRLLKNATK,failed
8,MVGQIAKEMGLRAYIVGGVVRDILLGKEVWDVDFVVEGNAIELAKELARRHGVNVHPFPEFGTAHLKIGKLKLEFATARRETYPRPGAYPKVEPASLKEDLIRRDFTINAMAISVNLEDYGTLIDYFGGLRDLKDKVIRVLHPVSFIEDPVRILRALRFAGRLNFKLSRSTEKLLKQAVNLGLLKEAPRGRLINEIKLALREDRFLEILELYRKYRVLEEIIEGFQWNEKVLQKLYALRKVVDWHALEFSEERIDYGWLYLLILISNLDYERGKHFLEEMSAPSWVRETYKFMKFKLGSLKEELKKAKENYEVYRLLKPLHTSVLLLLMLEEELKEKIKLYLEKLRKVKLPKEKIEELKKQGLKGKELGERIEELKREIMNKIKLAAALE,not failed
9,MVGQVIRKRGAYPEYTVEDVLAVIFLLKEPLGRKQISERLELGEGSVRTLLRKLSHLDIIRSKQRGHFLTLKGKEIRDKLLSMFSEPIGVSVDGYPGIAIVVKNPPEFKSIELRDEAIKFDAKGAMILTVKDNEIVFPEDFRPLKEMYPEVAKKIVDYEDGDAVIITWAETPAKALKSAIHVAYILKKEEITPEILEVVK,not failed
10,MVGSSETETKEHREAEERSSRESATATGKVSGKENELRPTYVYLLMMPENHNVDVQQTLQEQRKRNIKKARIEARLKLDQIRPTVVLENSRATKMMIEWGFTDFRKLQGSNLGNKKWICWVRKHCC,not failed
11,MVHAFLIHTLRAPNTEDTGLCRVLYSCVFGAEKSPDDPRPHGAERDRLLRKEQILAVARQVESMCRLQQQASGRPPMDLQPQSSDEQVPLHEAPRGAFRLAAENPFQEPRTVVWLGVLSLGFALVLDAHENLLLAEGTLRLLTRLLLDHLRLLAPSTSLLLRADRIEGILTRFLPHGQLLFLNDQFVQGLEKEFSAAWPR,failed
12,MVHEKKKMRKNHKKITHKGKKITTGAASVLLGAGIVVGANARPVKATSSREDEITEVDTINVISSETEKADVEQRTDTTETVETEGNVDNTNTEVSVPIDETINTEAQAANNTTQVESTVEDTTQEETTETQQNPSVDNQEPVLSDPPSVESPEDSATEVTTTKTTDEVKNAADEANKENKDKLDAEINKAEDNGHTVTQDGDKVYKADATNIDKIIEDLNQFTADQITDIETKLAKYKEELEAYKADQVRYEAELKNYQTAKDAYVKKLEEWGLYKPGDIDPSDISQSLILGEEKNSKVEVLNKGSVVDEGTGSILNGLLNHFYTIDEKFDGEFLKLQYTNLENITYMGKNIDSIQIIFSGWNPNYKGKNADKRTSGIYFSDKLTDGFFYVNSDGVTMEMILFENGKTINLDKNSAYITAGSLNSQGTGNDYIEKAEIFNNSSEYGGSAVTFQDSFIRRHDGTYGGDVLYADQNIEVLAVYPGKDQTLEDAIEEQKKLALEAGWKQEIIDKFINWDSSTDRSKAIFGAGAFMVYGNKIKIRFSNGIGSAWATYSTSIPGMAFREEKPKEPTVPEPPKLDLTYTPGHIELSKSNVHIHYVDVHDTAQAGKNDSFVPDDGIELDDHVDHQLDLLIGTGYNHDLWNFEDAGYILAEEIKDGVQNGTVIKDDQHHYVYLKHKFIPTTDEENEKKDVNQVIHYVYDATGETAYKDYHAVTLHFIKSGQKDVVNGNIIWGNWTLAQDFAGVKSPSIEGYHLKDKNDDVVGPYTIEVTEKNYQNNLDVEYTVRYVANATQELNLKKEVNQVIHYIYENGTKAHDDYHALTLLFEKKGIKDLETGEETWGEWTKTQTFVVVKSPDIQNYIADRLEVGPYEITVTDENYKTNLDKDDIVIYRARIEEVTRDKVVNQVIHYIYEDGSTARPDHVSVKLVFTQTGVKNLATNTTNWNGEWTKTQTFVVVKSPEIEGYTADREEVGPYDITVTNENYNDKLDKEDTVIYRANTNVPDNPDPDNPTPDNPDPDNPTPDTPTPDPTPGDDEEIATPPLPEDEIGNYPSQSDEDDEEERTAPHATGKETRSGTNKNNARVISLENAGSDDSVTPENVSTEATDKTDEKQTTVNSTNEKTLPATGEEKDDFAKVMSGLAAALGITGLAVTSKRRKATAKRSKKDKKNGK,failed
13,MVIDLAVDCQRQAAVLRQQRLRTARRVDDGQTLVHQDGTGIDVHAAPVRPAMALPLRTFQGLPAQGLQVVAGLQAEDTEDGTHGNTPGKVVMGGRRINTVQDITHKKNPHRPMRVFWKLGVCVGTSPSRRPASAAHDYSRADCCGDWRWRRWTETMSWADRIPLSAATQLLRWQPSRAGKPGIPRPPRDRGRVARIMSPPSSEASAMTPRIGRLAFAALIPLVLLQGCSTTAPRTEPAKLRQLEQTAADGSFDSIWEVASQLESRNDPRAIGWYERAAATTPWTFRNALAELALGRIWASGTLTHADSPYIDQRAALRASPRKGERWYLAAAMHGNPYAIRELAKFHRERGEAAAALRWDLRVAIYERAASGPSGLPAAIAPRDGDIHPLVRDIQRRARGGDAEAQVDLGALYEKGMGGMNRDGAEALRWYRRAADQGNVYGQYFYALLLGRGSSGVTRDEETAAIWFAKASAQRFYIADASHWREAIKPPFWTFD,failed
14,MVIGQKVLLARIPKMGDNYSTYLLDIEGTVCPISFVKETLFPYFTNKVPQLVQQDTRDSPVSNILSQFHIDNKEQLQAHILELVAKDVKDPILKQLQGYVWAHGYESGQIKAPVYADAIDFIKRKKRVFIYSSGSVKAQKLLFGYVQDPNAPAHDSLDLNSYIDGYFDINTSGKKTETQSYANILRDIGAKASEVLFLSDNPLELDAAAGVGIATGLASRPGNAPVPDGQKYQVYKNFETL,not failed
15,MVIINTAAYHFVSITQPQTLADQIRAHGEIAGLKGTVLIANEGINLFLAGEKEAINAFYAWLCADVRFAALHVKYSVSAYKPFARFKVKVRPEIISFRRGDISPLQVRAPGVSAHTLRDWLRRGCDDNGRRLVMLDARNQQEIAYGTFSGAMTLPITKFTGFPGALAHYRDLLSDATVVSFCTGGIRCEKAVLWMRADGMDNVLQLEGGILGYFEQVGGEGYDGRCFVFDKRVALDPQLRPLYDMRVVASFARSEIS,failed
16,MVINIRRSRPDEGDKLTAIWCRSVDATHDFLTKAYRKELEEMVRAFLPEAPLWVAVSTEDQPIAFMLLTGDHMDALFVDPDVRGCGVGKLLIEHALSLTPKLTTNVNEQNEQAVGFYQKMGFRVTGRSETDDLGQPYPLLNLMYEQQAEADYD,not failed
17,MVIPALPKIEDQFSTSATTVAWITSAYLIVGAVASPVFGKLGDRYGKKKIYLLAIAFYSLAVLIAGFSTNIYMLIFARAIQGLGFAVFPIAIAIITDLFPRERVAWAQSILSATLALGPALGLLIGAYIVQDLGWQYAFHTAFILSIILMFISIRFIQEIPSKTKERIDYLGAVFLMLAVISLLVYLTEGPSIGWFSATQFSLILTSIISFGVFIFVERRVAEPLMKLDLFRIRNIMVANISGLIAGTAMFLMFIGLTYYAQLPKPYGLGLSIIDSGLLMAPVALTMMVVGPIVGRLINSTGPKPLLIFGSIVGIIGFLLLNAFNSTNIQVLLDTVVASVGIISLMIPLVNMVAVSLPEDQRGVGIGMNTLIRSIGSSVGPVISTVFMDTYTAWIGYLFNNQYLPIASVPSSEAFHYIYLVGICLMFINLLVALLTKNYVLKQKVKTTESVV,failed
18,MVKGDITTAFIAEEYPDGFQGAVLDEPTLRRVAAAAAAMNRVAEIRRTRISGTMNNHERHVGVDWVVALQGESYHVSIAADREGSTVSFSDGSSLRVTSDWTPGQPLEHHHHHH,failed
19,MVKGKVINLHPTSSRFFKIGIKHYERGEIELAIERLKRALELDSKNIEIKFNLAGLLAQIGDFESSNKLLTELTTDNPEFYDSLFGLGCNFFEMGKLREAKHFLRRYLKLSNNTEFKEAAEDLLDFIETQQEFEREQKEMEKLTKLLERGNFLLENGRYEDAVKYFKMILAKDDTIFAARNNLSLAYFYMGEIEKAIHEAKKVLEIDKYNVYANCNLAFFYSTIGKTKELKKQLKTILELKTYDHKDKIKVLDTLIKLNQHAAIVDRAGELFEITKEPYFRHIQAISLYNTKQYIKAKKIWKDLKKNYNMPEIKIDYFLKKIDDVMKTFKKDTIDYFETGFGNLSKLEEKEFRSQLQKHIDMYFSQTFEENAKRIMDIIAENVKLNNEDKDAISQLLNALPLEKQRLNFTAIAAIVYYVYKKYLLRQKVKQKDVAERFGISQAVFSKWFKEFKGLLLGEDV,failed

# Source: a protein production outcome set (Wang et al. 2014)
